From patent US20250027068 come the findings set out here.

The labels stand for the following.
B1: PRT-347 (protein)
chain: MSQTEDSESLQRLRDIEDFQAEKEMQNVVYTKWLDGVDVKDHDFRKIVDGNSAYYATPLLNGRGWYDINKDFNRDSDKCAAAVAANMFHYWLDINRDNVDRFLRQNPEKHGIIELPDGQLKLSDFLNTYESDHGYRDKSKLFDFISNNFNGPVWTDKLLDNYINGYAYNYKYGRTIEDPTKNTSKINFFKEVFNEKILTNNHSIRNQNEFSVLLSEALYTGKAIGLSYGPAGLRHSLGHIISVWGADLDADGNVVAIYVTDSDDKKLTIGDERVGLKRYKISTDDENRLRLTAYEETHNTGGQVRGLWTLDTGKYAWADYFDKTEQTGTDQAEQ
B2: PRT-348 (protein)
chain: MSQTEDSESLQRLRDIEDFQAEKKDQNVVYTKWLDGVDVKDHDFRKIVDGNIAYYATPLLNGRGWYDINKDFNRDSDKCAAAVAANMFHYWLDINRDNVDRFLRQNPEKHGIIELPDGQLKLSDFLNTYESDHGYRDKSKLFDFISENFNGPVWTDKLLDNYINGYAYNYKYGRTIEDPTKNTSKINFFKEVFNEKILTNNHSIRNQNEFSVLLIEALYTGKAIGLSYGPAGLRHSLGHIISVWGADLDADGNVVAIYVTDSDDKKLTIGDERVGLKRYKISTDDENRLRLTAYEETHNTGGQVRGLWTLDTGKYAWADYFDKTEQTGTDQAEQ
B3: PRT-349 (protein)
chain: MSQTEDSESLQRLRDIEDFQAEKKDQNVVYTKWLDGVDVKDHDFRKIVDGNIAYYATPLLNGRGLYDINKDFNRDSDKCAAAVAANMFHYWLDINRDNVDRFLRQNPEKHGIIELPDGQLKLSDFLNTYESDHGYRDKSKLFDFISENFNGPVWTDKLLDNYINGYAYNYKYGRTIEDPTKNTSKINFFKEVFNEKILTNNHSIRNQNELSVLLSEALYTGKAIGLSYGPAGLRHSLGHIISVWGADLDADGNVVAIYVTDSDDKKLTIGDERVGLKRYKISTDDENRLRLTAYEETHNTGGQVRGLWTLDTGKYAWADYFDKTEQTGTDQAEQ
B4: PRT-363 (protein)
chain: MSQTEDSESLQRLRDIEDFQAEKEKQNVVYTKWLDGVDVKDHDFRKIVDGNSAYYATPLLNGRGWYDINKDFNRDSDKCAAAVAANMFHYWLDRNRDNVDRFLRQNPEKHGIIELPDGQLKLSDFLNTYESDDGYRDKSKLFDFISENFNGPVWTDKLLDNYINGYAYNSKYGRTIEDPTKNTSKINFFKEVFNEKILTNNHSIRNQNEFSVLLIEALYTGKAIGLSYGPAGLRHGLGHIISVWGADLDADGNVVAIYVTDSDDKKLTIGDERVGLKRYKISTDDEGRLRLTAYEETHNTGGQVRGLWTLDTGKQAWADYFDKTEQTGTDQAEQ
B5: PRT-356 (protein)
chain: MSQTEDSESLQRLRDIEDFQAEKEKQNVVYTKWLDGVDVKDHDFRKIVDGNSAYYATPLLNGRGFYDINKDFNRDSDKCAAAVAANMFHYWLDRNRDNVDRFLRQNPEKHGIIELPDGQLKLSDFLNTYESDDGYRDKSKLFDFISNNFNGPVWTDKLLDNYINGYAYNYKYGRTIEDPTKNTSKINFFKEVFNEKILTNNHSIRNQNEFSVLLSEALYTGKAIGLSYGPAGLRHSLGHIISVWGADLDADGNVVAIYVTDSDDKKLTIGDERVGLKRYKISTDDEGRLRLTAYEETHNTGGQVRGLWTLDTGKQAWADYFDKTEQTGTDQAEQ
B6: PRT-357 (protein)
chain: MSQTEDSESLQRLRDIEDFQAEKEKQNVVYTKWLDGVDVKDHDFRKIVDGNSAYYATPLLNGRGWYDINKDFNRDSDKCAAAVAANMFHYWLDRNRDNVDRFLRQNPEKHGIIELPDGQLKLSDFLNTYESDDGYRDKSKLFDFISNNFNGPVWTDKLLDNYINGYAYNYKYGRTIEDPTKNTSKINFFKEVFNEKILTNNHSIRNQNEFSVLLSEALYTGKAIGLSYGPAGLRHSLGHIISVWGADLDADGNVVAIYVTDSDDKKLTIGDERVGLKRYKISTDDEGRLRLTAYEETHNTGGQVRGLWTLDTGKQAWADYFDKTEQTGTDQAEQ
B7: PRT-355 (protein)
chain: MSQTEDSESLQRLRDIEDFQAEKKMQNVVYTKWLDGVDVKDHDFRKIVDGNEAYYATPLLNGRGFYDINKDFNRDSDKCAAAVAANMFHYWLDINRDNVDRFLRQNPEKHGIIELPDGQLKLSDFLNTYESDHGYRDKSKLFDFISENFNGPVWTDKLLDNYINGYAYNYKYGRLIEDPTKNTSKINFFKEVFNEKILTNNHSIRNQNELSVLLSEALYTGKAIGLSYGPAGTRHSLGHIISVWGADLDADGNVVAIYVTDSDDKKLTIGDERVGLKRYKISTDDENRLRLTAYEETHNTGGQIRGLWTLDTGKYAWADYFDKTEQTGTDQAEQ
B8: PRT-371 (protein)
chain: MSQTEDSESLQRLRDIEDFQAEKKKQNVVYTKWLDGVDVKDHDFRKIVDGNSAYYATPLLNGRGFYDINKDFNRDNDKCAAAVAANMFHYWLDRNRDNVDRFLRQNPEKHGIIELPDGQLKLSDFLNTYESDDGYRDKSKLFDFISENFNGPVWTDKLLDNYINGYAYNYKYGRTIEDSTKNTSKINFFKEVFNEKILTNNHSIRNQNEFSVLLIEALYTGKAIGLSYGPAGLRHSLGHIISVWGADLDADGNVVAIYVTDSDDKKLTIGDERVGLKRYKISTDDEGRLRLTAYEETHNTGGQIRGLWTLDTGKQAWADYFDKTEQTGTDQAEQ
B9: PRT-374 (protein)
chain: MSQTEDSESLQRLRDIEDFQAEKKKQNVVYTKWLDGVDVKDHDFRKIVDGNEAYYATPLLNGRGFYDINKDFNRDNDKCAAAVAANMFHYWLDRNRDNVDRFLRQNPEKHGIIELPDGQLKLSDFLNTYESDDGYRDKSKLFDFISENFNGPVWTDKLLDNYINGYAYNYKYGRTIEDSTKNTSKINFFKEVFNEKILTNNHSIRNQNELSVLLSEALYTGKAIGLSYGPAGLRHSLGHIISVWGADLDADGNVVAIYVTDSDDKKLTIGDERVGLKRYKISTDDEGRLRLTAYEETHNTGGQIRGLWTLDTGKQAWADYFDKTEQTGTDQAEQ
B10: PRT-364 (protein)
chain: MSQTEDSESLQRLRDIEDFQAEKKKQNVVYTKWLDGVDVKDHDFRKIVDGNEAYYATPLLNGRGFYDINKDFNRDSDKCAAAVAANMFHYWLDRNRDNVDRFLRQNPEKHGIIELPDGQLKLSDFLNTYESDDGYRDKSKLFDFISENFNGPVWTDKLLDNYINGYAYNYKYGRTIEDPTKNTSKINFFKEVFNEKILTNNHSIRNQNELSVLLSEALYTGKAIGLSYGPAGLRHSLGHIISVWGADLDADGNVVAIYVTDSDDKKLTIGDERVGLKRYKISTDDEGRLRLTAYEETHNTGGQIRGLWTLDTGKQAWADYFDKTEQTGTDQAEQ
B11: PRT-340 (protein)
chain: MTITSVWTKGVTPPTPEDFRENNEDVLHAPYLANQGWYDITKAFDGKDNLLCGAATAGNMLHWWFDQNKEEIERYLKKHPEKQKIIFNNQELFDVKAAIDTKDSQTNSKLFDYFRDKAFPNLSARQLGVMPDLVLDMFINGYYLNLGKTQSTDVNRPYQDKDKRGGIFDAVFTRGDQTTLLTARHDLKNKGLNEISDLIKQELTEGKALALSHTYANVSINHVINLWGADFDAEGNLEAIYVTDSDANASIGMKKYFVGRNAHGKVAISAKKIEGDNIGAQVLGLFTLSTGQDQWQKLS
B12: PRT-341 (protein)
chain: MTITSVWTKGVTPPTPEDFRENNEDVLHAPYLANQGWYDITKAFDGKDNLLCGAATAGNMLHWWFDQNKEEIERYLKKHPEKQKIIFNNQEWFDVKAAIDTKDSQTNSKLFNYFRDKAFPNLSARQLGVMPDLVLDMFINGYYLNLPKTQSTDVNRPYQDKDKRGGIFDAVFTRGDQTTLLTARHDLKNKGLNEISDLIKQELTEGKALALSHTYANVSINHVINLWGADFDAEGNLEAIYVTDSDANASIGMKKYAVGVNAHGKVAISAKKIEGDNIGAQVLGLFTLSTGQDIWQKLS

The data set has as its target pooled human IgG (human IgG1,2,3 and 4).
B1 came in with an Enzyme Activity Endpoint Assay (purified): Fab′2 of 769 ng/µL, an Enzyme Activity Endpoint Assay (purified): Fc of 397 ng/µL, an Enzyme Activity Endpoint Assay (purified): IgG of 0 ng/µL and an Enzyme Activity Endpoint Assay (purified): scIgG of 309 ng/µL.

As to B2, the Enzyme Activity Endpoint Assay (purified): Fab′2 stood at 736 ng/µL, the Enzyme Activity Endpoint Assay (purified): Fc worked out at 415 ng/µL, the Enzyme Activity Endpoint Assay (purified): IgG turned out to be 0 ng/µL and the Enzyme Activity Endpoint Assay (purified): scIgG turned out to be 325 ng/µL.

In turn, B3 yielded an Enzyme Activity Endpoint Assay (purified): Fab′2 of 677 ng/µL, an Enzyme Activity Endpoint Assay (purified): Fc of 215 ng/µL, an Enzyme Activity Endpoint Assay (purified): IgG of 0 ng/µL and an Enzyme Activity Endpoint Assay (purified): scIgG of 286 ng/µL.

As to B4, the Enzyme Activity Endpoint Assay (purified): Fab′2 stood at 838 ng/µL, the Enzyme Activity Endpoint Assay (purified): Fc came to 462 ng/µL, the Enzyme Activity Endpoint Assay (purified): IgG came to 0 ng/µL and the Enzyme Activity Endpoint Assay (purified): scIgG was determined as 354 ng/µL.

In turn, B5 came in with an Enzyme Activity Endpoint Assay (purified): Fab′2 of 780 ng/µL, an Enzyme Activity Endpoint Assay (purified): Fc of 418 ng/µL, an Enzyme Activity Endpoint Assay (purified): IgG of 0 ng/µL and an Enzyme Activity Endpoint Assay (purified): scIgG of 289 ng/µL.

The protein B6 had an Enzyme Activity Endpoint Assay (purified): Fab′2 of 724 ng/µL, an Enzyme Activity Endpoint Assay (purified): Fc of 389 ng/µL, an Enzyme Activity Endpoint Assay (purified): IgG of 0 ng/µL and an Enzyme Activity Endpoint Assay (purified): scIgG of 313 ng/µL.

As to B7, the Enzyme Activity Endpoint Assay (purified): Fab′2 worked out at 952 ng/µL, the Enzyme Activity Endpoint Assay (purified): Fc was determined as 500 ng/µL, the Enzyme Activity Endpoint Assay (purified): IgG turned out to be 0 ng/µL and the Enzyme Activity Endpoint Assay (purified): scIgG came out at 367 ng/µL.

Protein B8 returned an Enzyme Activity Endpoint Assay (purified): Fab′2 of 623 ng/µL, an Enzyme Activity Endpoint Assay (purified): Fc of 373 ng/µL, an Enzyme Activity Endpoint Assay (purified): IgG of 0 ng/µL and an Enzyme Activity Endpoint Assay (purified): scIgG of 295 ng/µL.

Regarding B9, the Enzyme Activity Endpoint Assay (purified): Fab′2 is 985 ng/µL, the Enzyme Activity Endpoint Assay (purified): Fc came out at 536 ng/µL, the Enzyme Activity Endpoint Assay (purified): IgG is 0 ng/µL and the Enzyme Activity Endpoint Assay (purified): scIgG stood at 379 ng/µL.

Protein B10 showed an Enzyme Activity Endpoint Assay (purified): Fab′2 of 863 ng/µL, an Enzyme Activity Endpoint Assay (purified): Fc of 439 ng/µL, an Enzyme Activity Endpoint Assay (purified): IgG of 0 ng/µL and an Enzyme Activity Endpoint Assay (purified): scIgG of 334 ng/µL.

B11 displayed an Enzyme Activity Endpoint Assay (purified): Fab′2 of 692 ng/µL, an Enzyme Activity Endpoint Assay (purified): Fc of 374 ng/µL, an Enzyme Activity Endpoint Assay (purified): IgG of 0 ng/µL and an Enzyme Activity Endpoint Assay (purified): scIgG of 307 ng/µL.

Consider B12, for which the Enzyme Activity Endpoint Assay (purified): Fab′2 is 832 ng/µL, the Enzyme Activity Endpoint Assay (purified): Fc came out at 199 ng/µL, the Enzyme Activity Endpoint Assay (purified): IgG came to 0 ng/µL and the Enzyme Activity Endpoint Assay (purified): scIgG is 318 ng/µL.
